In doi:10.1101/2020.05.06.080465:

Molecular target: 19S proteasomal subunit (human (endogenous in HeLa))
Assay: SEC

Substance: ubiquitin receptor ADRM1 (from UniProt Q16186 1-407) (natural protein)
- percent of the ADRM1 signal associated with 19S: 15%
